Test results as given in the supplement of paper PMC9233669.
Variants at the floor of the assay were thinned out.

Columns and labels:
biotinyl-Phe-oxazolone = assay: self-aminoacylation, catalytic enhancement (BFO) (fold over background); higher = more active; k-Seq, kA / k0A0; sequences stand for … in GGGAAUGGAUCCACAUCUACGAAUUC…UUCACUGCAGACUUGACGAAGCUG
How it was run: (§1)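 The uncatalyzed rate is the low-activity peak of a bimodal Gaussian fit, and catalytic enhancement is median kA divided by it. The kA values came from pseudo-first-order fits, with 1000 bootstraps, of per-sequence fraction reacted measured by streptavidin capture, triplicate qPCR and Illumina sequencing. Mutagenized RNA pools with a 21-nt variable region (0.43 μM) were reacted with each biotinyl-aminoacyl-oxazolone at 2–1250 μM in 50 μL HEPES/NaCl/KCl/MgCl2/CaCl2 buffer with 5% acetonitrile, pH 6.9–7.0, for 90 minutes at room temperature.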

biotinyl-Ile-oxazolone = assay: self-aminoacylation, catalytic enhancement (BIO) (fold over background); higher = more active; k-Seq, kA / k0A0; sequences stand for … in GGGAAUGGAUCCACAUCUACGAAUUC…UUCACUGCAGACUUGACGAAGCUG
How it was run: as §1

biotinyl-Met-oxazolone = assay: self-aminoacylation, catalytic enhancement (BMO) (fold over background); higher = more active; k-Seq, kA / k0A0; sequences stand for … in GGGAAUGGAUCCACAUCUACGAAUUC…UUCACUGCAGACUUGACGAAGCUG
How it was run: as §1

biotinyl-Val-oxazolone = assay: self-aminoacylation, catalytic enhancement (BVO) (fold over background); higher = more active; k-Seq, kA / k0A0; sequences stand for … in GGGAAUGGAUCCACAUCUACGAAUUC…UUCACUGCAGACUUGACGAAGCUG
How it was run: as §1

biotinyl-Leu-oxazolone = assay: self-aminoacylation, catalytic enhancement (BLO) (fold over background); higher = more active; k-Seq, kA / k0A0; sequences stand for … in GGGAAUGGAUCCACAUCUACGAAUUC…UUCACUGCAGACUUGACGAAGCUG
How it was run: as §1

biotinyl-Trp-oxazolone = assay: self-aminoacylation, catalytic enhancement (BWO) (fold over background); higher = more active; k-Seq, kA / k0A0; sequences stand for … in GGGAAUGGAUCCACAUCUACGAAUUC…UUCACUGCAGACUUGACGAAGCUG
How it was run: as §1

Sequence	self-aminoacylation (biotinyl-Phe-oxazolone)	self-aminoacylation (biotinyl-Ile-oxazolone)	self-aminoacylation (biotinyl-Met-oxazolone)	self-aminoacylation (biotinyl-Val-oxazolone)	self-aminoacylation (biotinyl-Leu-oxazolone)	self-aminoacylation (biotinyl-Trp-oxazolone)
CUACUCAAAACAAUCGGUCUG [Fam1A.1 aminoacylation ribozyme variant]	1.27	1.02	1.11	0.968	0.676	1.23
CUACUCCAAACAAUAGGUCUG [Fam1A.1 aminoacylation ribozyme variant]	1.17	0.839	0.938	0.776	0.744	0.734
CUACUCCAAACAAUCGGCCUG [Fam1A.1 aminoacylation ribozyme variant]	3.54	1.65	1.38	1.42	2.07	3.22
CUACUCCAAACAAUCGGUCUC [Fam1A.1 aminoacylation ribozyme variant]	2.41	0.71	0.753	0.723	0.513	1.34
CUACUCCAAACAAUCGGUCUG [Fam1A.1 aminoacylation ribozyme variant]	3.09	0.801	0.786	0.825	0.731	1.95
CUACUCCAAACAAUCGGUGUG [Fam1A.1 aminoacylation ribozyme variant]	1.03	0.733	0.945	0.879	0.964	0.752
CUACUCCAAACAAUCUGUCUG [Fam1A.1 aminoacylation ribozyme variant]	0.973	0.799	0.578	0.766	0.716	0.506
CUACUCCAACCAAUCGGUCUG [Fam1A.1 aminoacylation ribozyme variant]	0.726	0.623	0.74	0.706	0.855	0.879
CUACUCCACACAAUCGGUCUG [Fam1A.1 aminoacylation ribozyme variant]	0.891	0.696	0.722	0.731	0.702	0.9
CUACUCGAAACAAUCGGUCUG [Fam1A.1 aminoacylation ribozyme variant]	0.599	0.837	0.942	1.01	0.84	0.979
CUACUGCAAAAAAUCGGUCUG [Fam1A.1 aminoacylation ribozyme variant]	0.868	0.788	0.686	0.703	0.638	0.892
CUACUGCAAACAAUCGAUCUG [Fam1A.1 aminoacylation ribozyme variant]	0.699	0.705	0.937	0.732	0.663	0.679
CUACUGCAAACAAUCGGGCUG [Fam1A.1 aminoacylation ribozyme variant]	8.54	1.74	1.69	1.98	1.61	0.887
CUACUGCAAACAAUCGGUCUG [Fam1A.1 aminoacylation ribozyme variant]	1.08	0.804	0.769	0.844	0.776	0.77
CUACUGCAUACAAUCGGUCUG [Fam1A.1 aminoacylation ribozyme variant]	0.959	0.677	0.612	0.643	0.577	0.659
CUACUUAAAAAAAUCGGUCUG [Fam1A.1 aminoacylation ribozyme variant]	0.661	0.88	0.806	0.804	0.768	0.49
CUACUUAAAACAAACGGUCUG [Fam1A.1 aminoacylation ribozyme variant]	0.836	0.911	0.871	0.895	0.933	0.67
CUACUUAAAACAAGCGGUCUG [Fam1A.1 aminoacylation ribozyme variant]	0.744	1.04	0.926	0.902	0.836	0.982
CUACUUAAAACAAUCGGUCCG [Fam1A.1 aminoacylation ribozyme variant]	0.603	0.878	1.12	0.835	0.908	0.709
CUACUUAAAACAAUCGGUCUA [Fam1A.1 aminoacylation ribozyme variant]	0.81	0.766	0.729	0.894	0.602	0.711
CUACUUAAAACUAUCGGUCUG [Fam1A.1 aminoacylation ribozyme variant]	0.83	1.11	0.922	1.06	0.97	0.746
CUACUUAAGACAAUCGGUCUG [Fam1A.1 aminoacylation ribozyme variant]	0.817	0.775	0.909	0.783	0.668	0.71
CUACUUCAAAAAAUCGGCCUG [Fam1A.1 aminoacylation ribozyme variant]	15.3	1.9	1.73	1.56	1.7	13.1
CUACUUCAAAAAAUCGGUCCG [Fam1A.1 aminoacylation ribozyme variant]	1.57	0.724	0.749	0.604	0.761	1.31
CUACUUCAAAAAAUCGUUCUG [Fam1A.1 aminoacylation ribozyme variant]	1.03	0.605	0.564	0.613	0.57	0.581
CUACUUCAAACAAACGGUCGG [Fam1A.1 aminoacylation ribozyme variant]	0.694	1.05	0.726	0.944	0.809	0.585

Sequence	self-aminoacylation (biotinyl-Phe-oxazolone)	self-aminoacylation (biotinyl-Ile-oxazolone)	self-aminoacylation (biotinyl-Met-oxazolone)	self-aminoacylation (biotinyl-Val-oxazolone)	self-aminoacylation (biotinyl-Leu-oxazolone)	self-aminoacylation (biotinyl-Trp-oxazolone)
CUACUUCAAACAACCGGUAUG [Fam1A.1 aminoacylation ribozyme variant]	0.739	0.785	0.707	0.805	0.803	0.873
CUACUUCAAACAACCGGUCGG [Fam1A.1 aminoacylation ribozyme variant]	1.17	0.978	1.05	1.08	1.24	0.808
CUACUUCAAACAACCUGUCUG [Fam1A.1 aminoacylation ribozyme variant]	0.494	0.74	0.52	0.736	0.589	0.325
CUACUUCAAACAAGCCGUCUG [Fam1A.1 aminoacylation ribozyme variant]	0.59	0.78	0.925	0.746	0.872	0.926
CUACUUCAAACAAGCGGGCUG [Fam1A.1 aminoacylation ribozyme variant]	0.943	1.79	1.38	1.41	1.38	1.88
CUACUUCAAACAAGCGGUUUG [Fam1A.1 aminoacylation ribozyme variant]	0.557	0.89	0.637	0.701	0.705	0.559
CUACUUCAAACAAGGGGUCUG [Fam1A.1 aminoacylation ribozyme variant]	0.71	0.773	0.746	0.801	0.748	0.593
CUACUUCAAACAAUAGGUCUC [Fam1A.1 aminoacylation ribozyme variant]	1.03	0.666	0.535	0.657	0.493	0.459
CUACUUCAAACAAUAGGUCUU [Fam1A.1 aminoacylation ribozyme variant]	0.985	0.947	0.75	0.828	0.827	0.538
CUACUUCAAACAAUCAGCCUG [Fam1A.1 aminoacylation ribozyme variant]	21	0.99	0.824	1.17	1.01	9.56
CUACUUCAAACAAUCAGUCCG [Fam1A.1 aminoacylation ribozyme variant]	10.8	0.632	0.753	0.783	0.623	4.05
CUACUUCAAACAAUCAUUCUG [Fam1A.1 aminoacylation ribozyme variant]	3.72	0.616	0.488	0.577	0.513	1.55
CUACUUCAAACAAUCCGUCUU [Fam1A.1 aminoacylation ribozyme variant]	0.785	0.814	0.764	0.862	0.802	0.691
CUACUUCAAACAAUCGACCUG [Fam1A.1 aminoacylation ribozyme variant]	1.6	0.608	0.545	0.636	0.45	0.661
CUACUUCAAACAAUCGAUCGG [Fam1A.1 aminoacylation ribozyme variant]	0.743	0.647	0.56	0.73	0.721	0.676
CUACUUCAAACAAUCGAUCUG [Fam1A.1 aminoacylation ribozyme variant]	3.4	0.663	0.574	0.693	0.572	1.34
CUACUUCAAACAAUCGCUCCG [Fam1A.1 aminoacylation ribozyme variant]	1.08	0.768	0.713	0.926	0.775	1.02
CUACUUCAAACAAUCGGACAG [Fam1A.1 aminoacylation ribozyme variant]	1.19	0.782	0.718	0.709	0.672	0.656
CUACUUCAAACAAUCGGACUU [Fam1A.1 aminoacylation ribozyme variant]	1.04	0.788	0.737	0.85	0.665	1.07
CUACUUCAAACAAUCGGAGUG [Fam1A.1 aminoacylation ribozyme variant]	6.37	3.06	3.25	2.52	4.96	3.77
CUACUUCAAACAAUCGGCCUA [Fam1A.1 aminoacylation ribozyme variant]	2.51	1.48	1.39	1.16	1.25	1.43
CUACUUCAAACAAUCGGGCGG [Fam1A.1 aminoacylation ribozyme variant]	1.71	1.63	1.53	1.4	1.31	1.79
CUACUUCAAACAAUCGGUAUC [Fam1A.1 aminoacylation ribozyme variant]	2.2	0.635	0.541	0.594	0.554	0.994
CUACUUCAAACAAUCGGUGUA [Fam1A.1 aminoacylation ribozyme variant]	1.33	0.983	1.05	0.946	1.12	0.989
CUACUUCAAACAAUCGGUGUC [Fam1A.1 aminoacylation ribozyme variant]	1.18	0.613	0.654	0.546	0.635	0.851
